Experimental data taken from patent US20120014950A1 (Xencor, published 2012).

T1: human DR3-Fc fusion protein (human, UniProt Q93038 25-199)
T1 construct: also called hDR3-Fc; not shown: Fc portion
T1 sequence: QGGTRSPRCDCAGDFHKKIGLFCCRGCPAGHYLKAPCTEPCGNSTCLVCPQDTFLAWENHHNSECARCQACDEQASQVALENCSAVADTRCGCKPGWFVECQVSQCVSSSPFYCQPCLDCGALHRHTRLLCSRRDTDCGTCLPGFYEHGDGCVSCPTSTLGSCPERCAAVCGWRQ

T2: human DR3 receptor expressed on the cell surface (human, UniProt Q93038 25-417)
T2 construct: also called hDR3; TNFRSF25
T2 sequence: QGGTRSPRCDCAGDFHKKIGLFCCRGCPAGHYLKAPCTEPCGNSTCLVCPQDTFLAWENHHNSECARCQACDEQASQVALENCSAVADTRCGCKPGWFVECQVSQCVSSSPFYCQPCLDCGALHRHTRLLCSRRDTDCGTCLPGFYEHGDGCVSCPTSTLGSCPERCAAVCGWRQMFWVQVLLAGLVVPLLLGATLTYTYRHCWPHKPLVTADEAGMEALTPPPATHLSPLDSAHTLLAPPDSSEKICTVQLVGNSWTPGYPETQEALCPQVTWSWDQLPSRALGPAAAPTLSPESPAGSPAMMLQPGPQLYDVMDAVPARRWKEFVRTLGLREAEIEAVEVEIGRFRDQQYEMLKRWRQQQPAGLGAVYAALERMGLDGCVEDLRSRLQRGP


How the values were obtained:
[1] = target: T1, human DR3-Fc fusion protein; assay: BIAcore SPR; human DR3-Fc amine-coupled to CM5 chip, Fab-HSA in flow; 1:1 model; average of n=2
Experimental: (§1) Briefly, target proteins are covalently immoblilzed to the BIAcore CM5 sensor chip (Cat #BR-1000-14 (Biacore Life Sciences, Piscataway, N.J.)) via amine groups using N-ethyl-N′-(dimethylaminopropyl) carbodilimide/N-hydroxysuccinimide chemistry. Empty flow cells can be used as controls negative for target binding and for background subtraction. Six different concentrations of antibody molecules (range 0 to 50 nM) are flowed over the polypeptide-derivatized flow cells at 15 μL1/min for a total volume of 50 μl. The amount of bound protein is determined during washing of the flow cell with HBS buffer (10 mM HEPES [pH 7.4], 150 mM NaCl, 3.4 mM EDTA, and 0.005% Surfactant P20). The flow cell surface is regenerated by displacing bound protein by washing with 20 μl of 10 mM glycine-HCL (pH 2.3). For kinetic analysis, the on and off rates are determined using the kinetic evaluation program in BIAevaluation 3 software using a 1:1 binding model and the global analysis method.
(§2) Additionally, H1L2-Fab and H5L2-Fab were fused to human serum albumin (See, Example 6) and similarly tested. The Kd values of H0L0-Fab-HSA, H1L2-Fab-HSA, and H5L2-Fab-HSA were determined by BIAcore analysis as described above.

[2] = target: T1, human DR3-Fc fusion protein; assay: BIAcore SPR; human DR3-Fc amine-coupled to CM5 chip, Fab-HSA in flow; ratio of average Kd
Experimental: as §1, §2

[3] = target: T2, human DR3 receptor expressed on the …; assay: Flow cytometry on HEK293F cells transiently expressing human DR3. 1 ug/mL human TL1A, detected with anti-TL1A-biotin polyclonal antibody and streptavidin-PE. No competitor.
Experimental: FIG. 4. Flow cytometry results of 11H08 binding to hDR3-expressing HEK293F cells. HEK293F cells transiently expressing human DR3 were used to test the ability of the whole 11H08 immunoglobulin molecule to inhibit human TL1A binding to DR3 (See, Example 2). HEK293F cells were incubated with 1 μg/mL of human TL1A in the presence of either an unrelated antibody (mIgG1) as an isotype control (known not to bind TL1A or DR3) or 11H08. […] The upper panels show binding of labeled TL1A either by itself or in the presence of an unrelated antibody (mIgG1).
The anti-DR3 monoclonal antibody 11H08 was assayed for its ability to inhibit human TL1A binding to human DR3 using techniques known to those skilled in the art. Briefly, HEK293F cells transiently expressing human DR3 were incubated with 1 μg/mL of human TL1A in the presence of either an unrelated antibody (mIgG1) as an isotype control that was known not to bind TL1A or DR3, or an anti-DR3 monoclonal antibody (11H08), for 20 minutes at room temperature. Binding was detected using an anti-TL1A-biotin polyclonal antibody followed by Streptavidin PE. The ability of the anti-DR3 monoclonal antibody to inhibit binding of TL1A to DR3 was measured by flow cytometry.

[4] = target: T1, human DR3-Fc fusion protein; assay: BIAcore SPR; human DR3-Fc amine-coupled to CM5 chip, Fab in flow; ratio of average Kd
Experimental: as §1
(§3) In order to confirm that the humanized variant antibodies were capable of binding to the extracellular domain of DR3, the Kd values of eight humanized Fab variants were determined by BIAcore assay. In this experiment, a human DR3-Fc fusion protein was covalently immoblilzed to the BIAcore CM5 sensor chip. Empty flow cells that were negative for anti-DR3-Fab binding were used for background subtraction.

[5] = target: T1, human DR3-Fc fusion protein; assay: BIAcore SPR; human DR3-Fc amine-coupled to CM5 chip, Fab in flow; 1:1 model; average of n=2
Experimental: as §1, §3

Binder	Kd [1]	Ratio of binding relative to H0L0-Fab [2]	binding result [3]	Ratio of binding relative to H0L0-Fab [4]	Kd [5]
H0L0-Fab (Fab, V domains shown, also called 11H08-Fab; parental anti-DR3 molecule) VH: EVMLVESGGGLVKPGGSLKLSCAASGFTFTNYAMSWVRQTPEKRLEWVATITSGGSYIYYLDSVKGRFTISRDNAKSTLYLQMSSLRSEDTAIYNCARRKDGNYYYAMDYWGQGTSVTVSS VL: DIVLTQSPASLAVSLGQRATISCRASESVDSYGNSFIHWYQQKAGQPPKLLIYRASNLESGIPARFSGSGSRTDFTLTINPVEADDVATYYCQQSYEDPWTFGGGTKLEIKR	–	–	–	1	1.37 nM
H1.1L4-Fab (Fab, V domains shown) VH: EVQLVESGGGLVKPGGSLRLSCAASGFTFTNYAMSWVRQAPGQRLEWVSTITSGGSYIYYLDSVKGRFTISRDNAKSTLYLQMNSLRAEDTAVYYCARRKDGNYYYAMDYWGQGTTVTVSS VL: DIVLTQTPLSLSVTPGQPASISCRASESVDSYGNSFIHWYQQKPGQPPKLLIYRASNLESGIPARFSGSGSRTDFTLKISRVEAEDVGVYYCQQSYEDPWTFGGGTKLEIKR	–	–	–	0.94	1.29 nM
H5.3L4-Fab (Fab, V domains shown) VH: EVMLLQSGAEVKKPGASVKVSCKASGFTFTNYAMSWVRQAPGQRLEWVATITSGGSYIYYLDSVKGRFTISRDNAKSTLHLQMNSLRAEDTAVYYCARRKDGNYYYAMDYWGQGTTVTVSS VL: DIVLTQTPLSLSVTPGQPASISCRASESVDSYGNSFIHWYQQKPGQPPKLLIYRASNLESGIPARFSGSGSRTDFTLKISRVEAEDVGVYYCQQSYEDPWTFGGGTKLEIKR	–	–	–	1.28	1.76 nM
H1.1L1-Fab (Fab, V domains shown) VH: EVQLVESGGGLVKPGGSLRLSCAASGFTFTNYAMSWVRQAPGQRLEWVSTITSGGSYIYYLDSVKGRFTISRDNAKSTLYLQMNSLRAEDTAVYYCARRKDGNYYYAMDYWGQGTTVTVSS VL: DIVLTQSPATLSLSPGERATLSCRASESVDSYGNSFIHWYQQKPGQPPKLLIYRASNLESGIPARFSGSGSRTDFTLTISSLEPEDFAVYYCQQSYEDPWTFGGGTKLEIKR	–	–	–	1.06	1.46 nM
H4.2L2-Fab (Fab, V domains shown) VH: QVQLVQSGSELKKPGASVKVSCKASGFTFTNYAMSWVRQAPGKRLEWVATITSGGSYIYYLDSVKGRFTISRENAKSTLYLQMNSLRTEDTALYYCARRKDGNYYYAMDYWGQGTTVTVSS VL: DIVLTQSPSSLSASVGDRVTITCRASESVDSYGNSFIHWYQQKPGQPPKLLIYRASNLESGIPARFSGSGSRTDFTLTISSLQPEDFATYYCQQSYEDPWTFGGGTKLEIKR	–	–	–	1.46	2.01 nM

Second part, the binder after the results:

Kd [1]	Ratio of binding relative to H0L0-Fab [2]	binding result [3]	Ratio of binding relative to H0L0-Fab [4]	Kd [5]	Binder
3.06 nM	0.6	–	–	–	H1L2-Fab-HSA (Fab, also called AB13350-C1) heavy: not shown light: DIVLTQSPSSLSASVGDRVTITCRASESVDSYGNSFIHWYQQKPGQPPKLLIYRASNLESGIPARFSGSGSRTDFTLTISSLQPEDFATYYCQQSYEDPWTFGGGTKLEIKRTVAAPSVFIFPPSDEQLKSGTASVVCLLNNFYPREAKVQWKVDNALQSGNSQESVTEQDSKDSTYSLSSTLTLSKADYEKHKVYACEVTHQGLSSPVTKSFNRGEC
7.52 nM	1.4	–	–	–	H5L2-Fab-HSA (Fab, also called AB13351-C1) heavy: not shown light: DIVLTQSPSSLSASVGDRVTITCRASESVDSYGNSFIHWYQQKPGQPPKLLIYRASNLESGIPARFSGSGSRTDFTLTISSLQPEDFATYYCQQSYEDPWTFGGGTKLEIKRTVAAPSVFIFPPSDEQLKSGTASVVCLLNNFYPREAKVQWKVDNALQSGNSQESVTEQDSKDSTYSLSSTLTLSKADYEKHKVYACEVTHQGLSSPVTKSFNRGEC
–	–	binds	–	–	human TL1A (ligand, UniProt O95150 72-251, looked up, also called hTL1A; TNFSF15) LKGQEFAPSHQQVYAPLRADGDKPRAHLTVVRQTPTQHFKNQFPALHWEHELGLAFTKNRMNYTNKFLLIPESGDYFIYSQVTFRGMTSECSEIRQAGRPNKPDSITVVITKVTDSYPEPTQLLMGTKSVCEVGSNWFQPIYLGAMFSLQEGDKLMVNVSDISLVDYTKEDKTFFGAFLL
–	–	–	1.09	1.5 nM	H0.1L0-Fab (Fab, V domains shown) VH: EVMLVESGGGLVKPGGSLKLSCAASGFTFTNYAMSWVRQTPEKRLEWVATITSGGSYIYYLDSVKGRFTISRDNAKSTLYLQMSSLRSEDTAIYYCARRKDGNYYYAMDYWGQGTSVTVSS VL: DIVLTQSPASLAVSLGQRATISCRASESVDSYGNSFIHWYQQKAGQPPKLLIYRASNLESGIPARFSGSGSRTDFTLTINPVEADDVATYYCQQSYEDPWTFGGGTKLEIKR
–	–	–	0.85	1.17 nM	H1.1L2-Fab (Fab, V domains shown) VH: EVQLVESGGGLVKPGGSLRLSCAASGFTFTNYAMSWVRQAPGQRLEWVSTITSGGSYIYYLDSVKGRFTISRDNAKSTLYLQMNSLRAEDTAVYYCARRKDGNYYYAMDYWGQGTTVTVSS VL: DIVLTQSPSSLSASVGDRVTITCRASESVDSYGNSFIHWYQQKPGQPPKLLIYRASNLESGIPARFSGSGSRTDFTLTISSLQPEDFATYYCQQSYEDPWTFGGGTKLEIKR
–	–	–	1.22	1.67 nM	H5.3L2-Fab (Fab, V domains shown) VH: EVMLLQSGAEVKKPGASVKVSCKASGFTFTNYAMSWVRQAPGQRLEWVATITSGGSYIYYLDSVKGRFTISRDNAKSTLHLQMNSLRAEDTAVYYCARRKDGNYYYAMDYWGQGTTVTVSS VL: DIVLTQSPSSLSASVGDRVTITCRASESVDSYGNSFIHWYQQKPGQPPKLLIYRASNLESGIPARFSGSGSRTDFTLTISSLQPEDFATYYCQQSYEDPWTFGGGTKLEIKR
